According to patent US7098001B2, “Polypeptides having dipeptidyl aminopeptidase activity and nucleic acids encoding same” (Novozymes, Inc., priority 1997, dated 2006):

Assays:
[1] = activity of the purified enzymes on Leu-pNA; assay type: biochemical; conditions: 100-fold dilution
Method: The enzyme solution was then loaded onto a XK-26 column containing Q-Sepharose Big Beads pre-equilibrated with 20 mM phosphate buffer pH 7.5 buffer. A gradient was run from 0 to 300 mM NaCl, and then washed with 350 ml of 300 mM NaCl. Fractions were assayed for Leu-pNA activity according to the following protocol. The substrate was prepared by dissolving 2 mg of Leu-pNA (Sigma Chemical Co., St. Louis, Mo.) in 20 μl of DMSO. Then, 980 μl of 50 mM sodium phosphate pH 7.5 buffer was added. In a 96 well microtiter plate, 100 μl of the substrate solution was added to 100 μl of Aspergillus oryzae aminopeptidase I (100 fold diluted in 50 mM sodium phosphate pH 7.5 buffer) and the increase in absorbance at 405 nm was measured for 4 minutes using a SpectroMax 340 plate reader.
The purified aminopeptidase I was determined to have an activity of 26.822 LAPUs/ml for Leu-pNA using an extinction coefficient of 10,000 for para-nitroaniline at 405 nm. LAPU is defined as the leucine aminopeptidase activity which is determined as described in AF 298/1-GB (available on request from Novo Nordisk A/S, Denmark). The purified dipeptidyl aminopeptidase I was determined to have an activity of 11.54 DPAPU/ml for Ala-Pro-pNA, also using an extinction coefficient of 10000 for paranitroaniline. […]

[2] = activity of the purified enzymes on Ala-Pro-pNA; assay type: biochemical; conditions: purified enzyme; extinction coefficient of 10000
Method: A polypeptide of the present invention is added to the proteinaceous substrate in an effective amount conventionally employed in protein hydrolysis processes, preferably in the range of from about 0.1 to about 100,000 dipeptidyl aminopeptidase units (DPAPU) per 100 g of protein, and more preferably in the range of from about 1 to about 10,000 dipeptidyl aminopeptidase units per 100 g of protein. As defined herein, one dipeptidyl aminopeptidase Unit (DPAPU) is the amount of enyzme needed to release 1 micromole of p-nitroanilide per minute from Ala-Pro-p-nitroanilide (Sigma Chemical Co., St. Louis Mo.) under specified conditions.
The sample was then loaded onto a column (XK-26) containing 60 ml of Q-Sepharose Big Beads, which had been pre-equilibrated with 400 ml of 20 mM sodium phosphate pH 7.0 buffer. The column was washed until baseline was reached. […] In a 96 well microtiter plate, 100 μl of the substrate solution was added to 100 μl of Aspergillus oryzae dipeptidyl aminopeptidase I (100 fold diluted in 50 mM sodium phosphate buffer pH 7.5) and the increase in absorbance at 405 nm was measured for 4 minutes using a SpectroMax 340 plate reader (Molecular Devices, Sunnyvale, Calif.). […]
The purified aminopeptidase I was determined to have an activity of 26.822 LAPUs/ml for Leu-pNA using an extinction coefficient of 10,000 for para-nitroaniline at 405 nm. […]

B1: dipeptidyl aminopeptidase I: Recombinant Aspergillus oryzae 1568 (ATCC 20386) dipeptidyl aminopeptidase I, 771 amino acids (SEQ ID NO:2), produced in Fusarium and purified (protein, listed as Aspergillus oryzae)
chain: MKYSKLLLLLVSVVQALDVPRKPHAPTGEGSKRLTFNETVVKQAITPTSRSVQWLSGAEDGSYVYAAEDGSLTIENIVTNESRTLIPADKIPTGKEAFNYWIHPDLSSVLWASNHTKQYRHSFFADYYVQDVESLKSVPLMPDQEGDIQYAQWSPVGNTIAFVRENDLYVWDNGTVTRITDDGGPDMFHGVPDWIYEEEILGDRYALWFSPDGEYLAYLSFNETGVPTYTVQYYMDNQEIAPAYPWELKIRYPKVSQTNPTVTLSLLNIASKEVKQAPIDAFESTDLIIGEVAWLTDTHTTVAAKAFNRVQDQQKVVAVDTASNKATVISDRDGTDGWLDNLLSMKYIGPIKPSDKDAYYIDISDHSGWAHLYLFPVSGGEPIPLTKGDWEVTSILSIDQERQLVYYLSTQHHSTERHLYSVSYSTFAVTPLVDDTVAAYWSASFSANSGYYILTYGGPDVPYQELYTTNSTKPLRTITDNAKVLEQIKDYALPNITYFELPLPSGETLNVMQRLPPGFSPDKKYPILFTPYGGPGAQEVTKRWQALNFKAYVASDSELEYVTWTVDNRGTGFKGRKFRSAVTRQLGLLEAEDQIYAAQQAANIPWIDADHIGIWGWSFGGYLTSKVLEKDSGAFTLGVITAPVSDWRFYDSMYTERYMKTLSTNEEGYETSAVRKTDGFKNVEGGFLIQHGTGDDNVHFQNSAALVDLLMGDGVSPEKLHSQWFTDSDHGISYHGGGVFLYKQLARKLYQEKNRQTQVLMHQWTKKDLEE
[1]
  velocity on Leu-pNA: < 2 mOD/min
[2]
  activity for Ala-Pro-pNA: 11.54 DPAPU/ml
